Consider 2 molecules from patent publication US20130209365A1 (ACADEMIA SINICA, published 2013).

The assay addresses T1, BSA control protein (bovine, UniProt P02769 25-607).
T1 construct: also called bovine serum albumin
Nature of the assay: phage ELISA. (ELISA stands for enzyme-linked immunosorbent assay.)

T1 sequence (P02769 25-607 limits assumed): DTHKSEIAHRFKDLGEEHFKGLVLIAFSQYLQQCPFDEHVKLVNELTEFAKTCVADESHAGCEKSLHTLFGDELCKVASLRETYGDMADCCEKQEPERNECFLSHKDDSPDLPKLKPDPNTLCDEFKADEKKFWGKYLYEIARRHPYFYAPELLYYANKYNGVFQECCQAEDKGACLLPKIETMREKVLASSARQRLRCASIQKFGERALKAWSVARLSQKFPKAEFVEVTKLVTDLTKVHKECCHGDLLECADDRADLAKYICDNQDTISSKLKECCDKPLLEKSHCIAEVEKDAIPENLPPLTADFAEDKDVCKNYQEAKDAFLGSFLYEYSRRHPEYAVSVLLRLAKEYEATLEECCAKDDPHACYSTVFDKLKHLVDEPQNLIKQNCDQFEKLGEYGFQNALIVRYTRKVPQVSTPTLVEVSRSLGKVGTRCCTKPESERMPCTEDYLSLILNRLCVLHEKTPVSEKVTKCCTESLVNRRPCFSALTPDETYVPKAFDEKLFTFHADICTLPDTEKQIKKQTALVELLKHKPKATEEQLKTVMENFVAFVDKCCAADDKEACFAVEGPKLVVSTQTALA

B1: phage-displayed anti-c-Met scFv PC21 (scFv, not shown: large carriers)
scFv: MAEVQLVESGPGLVKPSGTLSLKCDASAISMDSNYWWSWLRQPPGKGLEWIGEISHSGSTDYNPSLKSRATISIDKSKKQFFLRLKSVTAADTAVYYCAGLLSPLDAFDEWGQGTMVTVGGGGSGGGGSGGGGSDIQMTQSPSSLSASVGDRVTITCRASQRVATYLNWYQQKPGKAPNLLIYEASSLQSGVPSRFSGRRSGTDFTLTISSLQPEDFATYYCQQSYNTPYTFGQGTRLEIKR
notes: tested as whole phage; also called anti-c-Met phage clone 21
Consider B1, for which the binding result is “no binding”.

B2: phage-displayed anti-c-Met scFv PC1 (scFv, not shown: large carriers)
scFv: MAQVQLQQSGPGLVKPSQTLSLTCDISGDSVSSNSAAWNWIRQSPSRGLEWLGRTYYRSRWYNEYAVSVRGRISINAETSKNQFSLQLNSVTPEDTAIYYCARAGFCSGGNCYPGSEDAFDLWGQGTMVTVGGGGSGGGGSGGGGSDVVMTQSPPSLSVSVGDRVTITCRASQDITNDLNWYQQKPGKAPQLLIYHASELETGVPSRFSGSGFGTDFTLTISSLQPADIATYYCQQYDDLPLTFGGGTKVEIKR
notes: tested as whole phage; also called anti-c-Met phage clone 1
For B2, the binding result is recorded as “no binding”.
